B1: OR4K15 (parent)
chain: GUUAACGGUCAUAGGCCAUGGAAACUAGGAGCACCAUUUCGCUGCCAGUGAAGAAAUGAACAAAGAAAAUCUGGGCCAGGCAGGCAUCAAAAGAAAUAGUCUUGCGCUCAACCAGAAAGUCUGUAAUCAUUUUAAGGGUA

Variants of: B1
Assay: self-cleavage, relative activity (ratio to wild type); higher = more cleavage; in vitro, sequencing; the parent is a self-cleaving ribozyme

Row | Variant | self-cleavage
1 | GUUAACGGUCAUAGGCCAUGGAAACUAGGAGCACCAUUUCGCUGCCAGUGAAGAAAUGAACAGAGAAAAUCUGGGCCAGGCAGGCAUCAAAAGAAAUAGUCUUGCGCUCAACCAGGAAGUCUGUAAUCAUUUUAAGGGUA [A63G A116G] | 1.17
2 | GUUAACGGUCAUAGGCCAUGGAAACUAGGAGCACCAUUUCGCUGCCAGUGGAGAAAUGAACAAAGAAAAUCUGGGCCAGGCAGGCAUCAAAAGAAAUAGUCUUGCGCUCAACCAGAAAGUCUGUAAUCAUUUUAAGGCUA [A51G G138C] | 1.66
3 | GUUAACGGUCAUAGGCCAUGGAAACUAGGAGCACCAUUUCGCUGCCAGUGAAGAAAUGAACAAAGAAAAUCUGGGCCAGGCAGGCAUCAAAAGAAAUAGUCUUGCGCUCAACCAGAAAGUCUGUAAACAAUUUAAGGGUA [U127A U130A] | 1.95
4 | GUUAACGGUCAUAGGCCAUGGAAACUAGGAGCACCAUUUCGCUGCCAGUGGAGAAAUGAACAAAGAAAAUCUGGGCCAGGCAGGCAUCAAAAGAAAUAGUCUUGCGCCCAACCAGAAAGUCUGUAAUCAUUUUAAGGGUA [A51G U108C] | 0.02
5 | GUUAACGGUCAUAGGCCAUGGAAACUAGGAACACCAUUUCGCUGCCAGUGAAGAAAUGAACAAAGAAAAUCUGGGCCAGGCAGGCAUCAAAAGAAAUAGUCUUGCGCUCAACCAGAAAGUCUGUAAUCAUUUUAAGUGUA [G31A G137U] | 1.5
6 | GUUAACGGUCAUAGGCCAUGGAAACUAGGAGCACCAUUUCGCUGCCAGUGAAGAAAUGAACAAAGAAAGUCUGGGCCAGGCGGGCAUCAAAAGAAAUAGUCUUGCGCUCAACCAGAAAGUCUGUAAUCAUUUUAAGGGUA [A69G A82G] | 0.48
7 | GUUAACGGUCAUAGGCCAUGGAAACUAGGAGCACCAUUUCGCUGCCAGUGAAGAAAUGAACAAAGAAGAUCUGGGCCAUGCAGGCAUCAAAAGAAAUAGUCUUGCGCUCAACCAGAAAGUCUGUAAUCAUUUUAAGGGUA [A68G G79U] | 0.07
8 | GUUAACGGUCAUAGGCCACGGAAACUAGGAGCACCAUUUCGCUGCCAGUGAAGAAAUGAACAAAGAAAAUCUGCGCCAGGCAGGCAUCAAAAGAAAUAGUCUUGCGCUCAACCAGAAAGUCUGUAAUCAUUUUAAGGGUA [U19C G74C] | 0.18
9 | GUUAGCGGUCAUAGGCCAUGGAAACUAGGAGCACCAUUUCGCUGCCAGUGAAGAAAUGAACAAAGAAAAUCUGGGCCAGGCAGGCAUCAAAAGAAAUAGUCUUGCGCUCAACCAGAAAGUCUGUAAUGAUUUUAAGGGUA [A5G C128G] | 0.8
10 | GGUAACGGUCAUAGGCCAUGGAAACUAGGAGCACCAUUUCGCUGCCAGUGAAGAAAUGAACGAAGAAAAUCUGGGCCAGGCAGGCAUCAAAAGAAAUAGUCUUGCGCUCAACCAGAAAGUCUGUAAUCAUUUUAAGGGUA [U2G A62G] | 0.65
11 | GUUAACGGUCAUAGGCCAUGGAAACUAGGAGCACCAUUUCGCUGCCAGUGAAGAAAUGAACAAAGAAAAUCUGGACCAGGCAGGCAUCAAAAGAAAUAGUCUUGCGCUCAACCAGAAAGUCUGUAAUCAUUUUAAGGGUA [G75A] | 0.11
12 | GUUAACGGUCAUAGGCCAUGGAAACCAGGAGCACCAUUUCGCUGCCAGUGAAGAAAUGAACAAAGAAAAUCUGGGCCAGGCAGGCAUCAAAAGAAAUAGUCUUGCGCUCAACCAGAAAGUCCGUAAUCAUUUUAAGGGUA [U26C U122C] | 0.7
13 | GUUAACGGUCAUAGGCCAUGGAGACUAGGAGCACCAUUUCGCUGCCAGCGAAGAAAUGAACAAAGAAAAUCUGGGCCAGGCAGGCAUCAAAAGAAAUAGUCUUGCGCUCAACCAGAAAGUCUGUAAUCAUUUUAAGGGUA [A23G U49C] | 0.9
14 | GUUAACGGUCAUAGGCCAUGGAAACUAGGAGCACCAUUUCGCUGCCAGUGAAGAAAUGAACAAAGAUAAUCUGGGCCAGGCAGGCAUCAAAAGAAAUAGUCUUGCGCUCAACCAGAAAGUCUGUAAUCAUGUUAAGGGUA [A67U U131G] | 1.68
15 | GUUAACGGCCAUAGGCCAUGGAAACUAGGAGCACCAUUUCGCCGCCAGUGAAGAAAUGAACAAAGAAAAUCUGGGCCAGGCAGGCAUCAAAAGAAAUAGUCUUGCGCUCAACCAGAAAGUCUGUAAUCAUUUUAAGGGUA [U9C U43C] | 1.48
16 | GUUAACGGUCAUAGGCCAUGGAAACUGGGAGCACCAUUUCGCUGCCAGUGAAGAAAUGAACAAAGAAGAUCUGGGCCAGGCAGGCAUCAAAAGAAAUAGUCUUGCGCUCAACCAGAAAGUCUGUAAUCAUUUUAAGGGUA [A27G A68G] | 1.13
17 | GUUAACGGUCAUAGGCCAUGGAAACUGGGAGCACCAUUUCGCUGCCAGUGAAGAAAUGAACAAAGAAAAUCUGGGCCAGGCAGGCAUCAAAAGAAAUAGUCUCGCGCUCAACCAGAAAGUCUGUAAUCAUUUUAAGGGUA [A27G U103C] | 0.76
18 | GUUAACGGUCAUAAGCCAUGGAAACUAGGAGCACCAUUUCGCUGCCAGUGAAGAAAUGAACAAAGAAAAUCUGGGCCAGGCAGGCAUCAAAAGAAAUAGUCUUGCGCUCAACCAGAAGGUCUGUAAUCAUUUUAAGGGUA [G14A A118G] | 0.59
19 | GUUAACGGUCAUAGGCCAUGGAAACUAGGAGCACCAUUUCGCUGCCAGUGAAGAAAUGAACGAAGAAAAUCUGGGCCAGGCUGGCAUCAAAAGAAAUAGUCUUGCGCUCAACCAGAAAGUCUGUAAUCAUUUUAAGGGUA [A62G A82U] | 0.25
20 | GUUAACGGUCAUAGGCCAUGGAAUCUAGGAGCACCAUUUCGCAGCCAGUGAAGAAAUGAACAAAGAAAAUCUGGGCCAGGCAGGCAUCAAAAGAAAUAGUCUUGCGCUCAACCAGAAAGUCUGUAAUCAUUUUAAGGGUA [A24U U43A] | 1.68
21 | GUUAACGGUCAUAGGCCAUGGAAACUCGGAGCACCAUUUCGCUGCCAGUGAAGAAAUGAACAAAGAUAAUCUGGGCCAGGCAGGCAUCAAAAGAAAUAGUCUUGCGCUCAACCAGAAAGUCUGUAAUCAUUUUAAGGGUA [A27C A67U] | 1.29

Row | Variant | self-cleavage
22 | GUUAACGGUCAUAGGCCAUGGAAACUAGGAGCACCAUUUCGCUGCCAGUGAAGAAAUGAACAAAGAAAAUCGGGGCCAGGCAGGCAUCAAAAGAAAUAGUCAUGCGCUCAACCAGAAAGUCUGUAAUCAUUUUAAGGGUA [U72G U102A] | 0.11
23 | UUUAACGGUCAUAGGCCAUGGAAACUAGGAGCACCAUUUCGCUGCCAGUGAGGAAAUGAACAAAGAAAAUCUGGGCCAGGCAGGCAUCAAAAGAAAUAGUCUUGCGCUCAACCAGAAAGUCUGUAAUCAUUUUAAGGGUA [G1U A52G] | 1.83
24 | GUUAACGGUCAUAGGCCAUGGAAACUAGGAGCACCAUUUCGCAGCCAGUGAAGAAAUGAACAAAGAAAAUCUGCGCCAGGCAGGCAUCAAAAGAAAUAGUCUUGCGCUCAACCAGAAAGUCUGUAAUCAUUUUAAGGGUA [U43A G74C] | 0.23
25 | GUUAACGGUCAUAGGCCAUGGAAACUAGGUGCACCAUUUCGCUGCCAGUGAAGAAAUGAACAAAGAAAAACUGGGCCAGGCAGGCAUCAAAAGAAAUAGUCUUGCGCUCAACCAGAAAGUCUGUAAUCAUUUUAAGGGUA [A30U U70A] | 1.71
26 | GUUAACGGUCAUAGGCCAUGGAAACUAGGAGCACCAUCUCGCCGCCAGUGAAGAAAUGAACAAAGAAAAUCUGGGCCAGGCAGGCAUCAAAAGAAAUAGUCUUGCGCUCAACCAGAAAGUCUGUAAUCAUUUUAAGGGUA [U38C U43C] | 1.59
27 | GUUAACGGUCAUAGGCCAUGGAAACUAGGAGCACCAUUUCGCUGCCAGUGAAGAAAUGAACAAAGAAAAUCUGGGCCAGGCAGGCAUCAAAAGAAAUAGUCGUGCGCUCAACCAGGAAGUCUGUAAUCAUUUUAAGGGUA [U102G A116G] | 0.62
28 | GUUAACGGUCAUAGGCCAUGGAAACUAGGAGCACCAUUUCGCUGCCAGUGAAGAAAUGAACAAAGAAAAUCUGGGCCGGGCAGGCAUCAAAAGAAAUAGUCUUGCGCUCAACCAGAAAGUCUGCAAUCAUUUUAAGGGUA [A78G U124C] | 0.14
29 | GUUAACGGUCAUAGGCCAUGGAAACUAGGAGCACCAUUUCGUUGCCAGUGAAGAAAUGAACAAAGAAAAUCUGGGCCAGGCAGGCAUCAAAAGAAAUAGUCUUGUGCUCAACCAGAAAGUCUGUAAUCAUUUUAAGGGUA [C42U C105U] | 0.05
30 | GCUAACGGUCAUAGGCCAUGGAAACUAGGAGCACCAUUUCGCUGCCAGUGAAGAAAUGAACAAAGAAAAUCUGGGCCAGGCAGGCAUCACAAGAAAUAGUCUUGCGCUCAACCAGAAAGUCUGUAAUCAUUUUAAGGGUA [U2C A90C] | 1.23
31 | GUUAACGGUCAUAGGCCAUGGAAACUAGGAGCACCAUUUCGCUGCCAGUGAAGAAAUGAACGAAGAAAAUCUGGCCCAGGCAGGCAUCAAAAGAAAUAGUCUUGCGCUCAACCAGAAAGUCUGUAAUCAUUUUAAGGGUA [A62G G75C] | 0.18
32 | GUUAACGGUCAUAGGCCAUGGAAACUAGGAGCACCAUUACGCUGCCAGUGAAGAAAUGAACAAAGAAAAUCUGGGCCAGGCGGGCAUCAAAAGAAAUAGUCUUGCGCUCAACCAGAAAGUCUGUAAUCAUUUUAAGGGUA [U39A A82G] | 0.44
33 | GUUAACGGUCAUAGGCUAUGGGAACUAGGAGCACCAUUUCGCUGCCAGUGAAGAAAUGAACAAAGAAAAUCUGGGCCAGGCAGGCAUCAAAAGAAAUAGUCUUGCGCUCAACCAGAAAGUCUGUAAUCAUUUUAAGGGUA [C17U A22G] | 1.48
34 | GAUAACGGUCAUAGGCCAUGGAAACUAGGAGCACCAUUUCGCUGCCAGUGAAGAAAUGAACAAAGAAGAUCUGGGCCAGGCAGGCAUCAAAAGAAAUAGUCUUGCGCUCAACCAGAAAGUCUGUAAUCAUUUUAAGGGUA [U2A A68G] | 0.8
35 | GUUAACGGUCAUAGGCCAUGGAAACUAGGAGCACCAUUUCGCUGCCAGUGACGAAAUGAACAAAGAAAAUCUGGGCCAGGCAGGCAUCAAGAGAAAUAGUCUUGCGCUCAACCAGAAAGUCUGUAAUCAUUUUAAGGGUA [A52C A91G] | 1.96
36 | GUUAACGGUCAUAGGCCAUGGAAACUAGGAGCACCAUUUCGCUGCCAGUGAAGAAAUGAACAAAGAAAAUCUGGGCCAGGCAGGCAUCAAAAGAAAUAGUCUUGCGCUCAACCAGAAAGUCUGUAAUCGUUUUAAGGGAA [A129G U139A] | 0.81
37 | GUUAACGGUCAUAGGCCAUGGAAACUAGGAGCACCAUUUCGCUGCCAGUGAAGAAAUGAACAAAGAAAAUCUGGACCAGGCAGGCAUCAAAAGAAAUAGUCUCGCGCUCAACCAGAAAGUCUGUAAUCAUUUUAAGGGUA [G75A U103C] | 0.06
38 | GUUAACGGUCAUAGGCCAUGGAAACUAGGAGCACCAUUUCACUGCCAGUGAAGAAAUGAACAAAGAAAAUCUGGGCCAGGCAGGCAUCAAAAGAAAUAGUCUUGCGCUCAACCAGAAAGUCUGUAAUCAUUUCAAGGGUA [G41A U133C] | 1.98
39 | GUUAACGGUCAUAGGCCAUGGAAACUAGGAGCACCAUUUCGCUGCCAGUGAAGAAAUGAACAGAGAAAAUCUGGGCCAGGCAGGCAUCAAAAGAAAUAGUCUUGCGCUCAACCAGAAAGUCUAUAAUCAUUUUAAGGGUA [A63G G123A] | 2.17
40 | GUUACCGGUCAUAGGCCAUGGAGACUAGGAGCACCAUUUCGCUGCCAGUGAAGAAAUGAACAAAGAAAAUCUGGGCCAGGCAGGCAUCAAAAGAAAUAGUCUUGCGCUCAACCAGAAAGUCUGUAAUCAUUUUAAGGGUA [A5C A23G] | 1.28
41 | GUUAACGGUCAUAGGCCAUGGAAACUAGGAGCACCAUUUCGCUGCCAGUGAAGAAAUGAACAAAGAACAUCUGGGCCAGGCAGGCAUCAAAAGAAAUAGUCUUGCGCUCAACCAGAAGGUCUGUAAUCAUUUUAAGGGUA [A68C A118G] | 1.84
